In experiment [1] the target is cyclin D1 with the CDK6n-CDK4c chimera (UniProt P24385). Description: recruitment to a CDK tethered at the inner nuclear membrane, with FRAP; as a4 but with 6 µM palbociclib overnight and throughout, or 6 µM palbociclib, ribociclib or abemaciclib added acutely about 4-5 min after photobleaching.
For experiment [2], the target named is CDK2-mTurquoise-Δ50 lamin A (UniProt P24941). Nature of the experiment: recruitment to a CDK tethered at the inner nuclear membrane, with FRAP; live RPE-1 cells with mVenus-cyclin and CDK-mTurquoise-Δ50 lamin A, p21 and p27 depleted by siRNA co-knockdown; recovery of mVenus after photobleaching; 37 °C.

Sequence of cyclin D1 with the CDK6n-CDK4c chimera (P24385 whole entry, looked up, stated change not applied): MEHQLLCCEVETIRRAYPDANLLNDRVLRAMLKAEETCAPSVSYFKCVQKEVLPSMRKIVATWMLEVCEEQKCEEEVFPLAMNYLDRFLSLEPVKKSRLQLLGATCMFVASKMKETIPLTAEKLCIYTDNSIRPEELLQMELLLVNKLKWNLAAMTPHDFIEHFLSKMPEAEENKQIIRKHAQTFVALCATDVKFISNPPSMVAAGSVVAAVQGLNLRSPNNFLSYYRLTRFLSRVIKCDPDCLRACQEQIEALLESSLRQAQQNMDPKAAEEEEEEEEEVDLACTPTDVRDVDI
Sequence of mVenus-cyclin E1 (P24864 whole entry): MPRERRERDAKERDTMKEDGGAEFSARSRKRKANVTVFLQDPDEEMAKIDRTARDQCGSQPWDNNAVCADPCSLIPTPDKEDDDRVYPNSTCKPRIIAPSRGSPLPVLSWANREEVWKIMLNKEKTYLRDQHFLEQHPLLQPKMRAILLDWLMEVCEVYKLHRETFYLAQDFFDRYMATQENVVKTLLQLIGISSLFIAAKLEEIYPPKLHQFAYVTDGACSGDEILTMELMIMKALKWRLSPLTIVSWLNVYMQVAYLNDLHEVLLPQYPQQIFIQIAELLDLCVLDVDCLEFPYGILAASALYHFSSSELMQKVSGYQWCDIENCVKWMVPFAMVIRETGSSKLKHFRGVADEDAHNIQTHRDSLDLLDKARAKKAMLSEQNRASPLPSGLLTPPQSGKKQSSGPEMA
Sequence of mRuby3-p21 (P38936 whole entry): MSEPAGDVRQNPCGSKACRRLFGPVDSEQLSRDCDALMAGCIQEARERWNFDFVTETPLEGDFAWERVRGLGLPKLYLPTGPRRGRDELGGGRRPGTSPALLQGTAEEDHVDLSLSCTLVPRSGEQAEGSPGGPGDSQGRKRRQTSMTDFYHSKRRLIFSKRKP

“mRuby3-p21 (from UniProt P38936 1-164) (natural protein)” showed a fold decrease in fold change of the off-rate with palbociclib against DMSO in experiment [1] of 10 fold.

“mVenus-cyclin E1 (from UniProt P24864 1-410) (natural protein; other documents disagree on this pair)” returned a dissociation t-half in experiment [2] of 3 min.

Values taken from publication PMC8184839.
